In series [1] the target is T1, TASOR fragment (residues 1014–1095) (human, UniProt Q9UK61-1 1014-1095).
T1 construct: codon-optimized synthetic gene; untagged; Residues 1055–1071 are disordered in the crystal structure; also called untagged TASOR fragment; minimal core TASOR; source: E. coli BL21 (DE3), co-expressed with His6-Periphilin fragments from pRSF-Duet, co-purified with Periphilin
T1 sequence (looked up): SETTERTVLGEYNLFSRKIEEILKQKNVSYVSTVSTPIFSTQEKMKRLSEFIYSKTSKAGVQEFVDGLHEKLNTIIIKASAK
The series can be described thus: native MS; non-denaturing mass spectrometry of the His6-Periphilin 285–374 / TASOR 1014–1095 complex; conditions not shown. Conditions: both partners purified.

Series [2] has as its target T1, TASOR fragment (residues 1014–1095). The series can be described thus: SEC-MALS; minimal Periphilin-TASOR core complex; Superdex 200 10/300 in PBS, 293 K, 0.5 ml/min. Conditions: both partners purified. Background: Size exclusion chromatography separates by hydrodynamic size, large species first.
Series [3] concerns the molecule itself. Kind of series: crystal structure; Periphilin 292–367 with TASOR 1014–1095; sitting drop, 18°C, 0.1 M citrate pH 4.5, 1 M ammonium sulfate; SAD phasing with Br; refined at 2.5 Å.

B1: His6-tagged Periphilin residues 285–374 (domain or fragment, human, UniProt Q8NEY8-2 285-374, looked up)
chain: GIELFEDSQLTTRSKAIASKTKEIEQVYRQDCETFGMVVKMLIEKDPSLEKSIQFALRQNLHEIGERCVEELKHFIAEYDTSTQDFGEPF
notes: codon-optimized synthetic gene; Construct used for NMR and native mass spectrometry of the Periphilin-TASOR complex; not shown: His6, N-terminal, kept
What is called stoichiometry N is a count of units in the complex or per binding partner. B1: the “stoichiometry N” value in series [1] was 2 Periphilin per TASOR.

B2: Periphilin fragment (residues 292–367) (domain or fragment, human, UniProt Q8NEY8-2 292-367, looked up)
chain: SQLTTRSKAIASKTKEIEQVYRQDCETFGMVVKMLIEKDPSLEKSIQFALRQNLHEIGERCVEELKHFIAEYDTST
notes: codon-optimized synthetic gene; preceded by a His6 tag and a TEV site (ENLYFQG), digested with TEV protease; Two copies of this chain form a homodimer in the 2:1 complex with TASOR; A residue of the TEV site (G) may remain at the N-terminus after cleavage; not shown: His6, N-terminal, cleaved
Consider B2, for which the “stoichiometry N” value in series [2] amounted to 2 Periphilin per TASOR. In addition, the binding result in series [3] is recorded as “binds”.
